Laboratory results reported in paper PMC12350152 (Nature Structural & Molecular Biology, 2025).

T1: Pfs48/45 fragment containing D3 (ELISA antigen) (Plasmodium falciparum, strain not …)
T1 chain: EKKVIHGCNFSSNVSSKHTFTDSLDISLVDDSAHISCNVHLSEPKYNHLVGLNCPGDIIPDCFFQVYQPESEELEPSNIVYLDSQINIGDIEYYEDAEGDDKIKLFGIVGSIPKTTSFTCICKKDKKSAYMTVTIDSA

B1: 10D8 Fab (Fab, V domains shown)
VH: EVMLVESGGDLVKPGGSLKVSCAASGFTFSNYAMSWVRQTPEKRLEWVATISSGASYTHYPDSVKGRFTISRDNAKNTLYLQMSSLRSEDTAMYYCGRQVNRHDRALDAMDYWGQGTSVTVSP
VL: not shown
B2: RUPA-44 mAb (IgG) (antibody, V domains shown)
VH: QLQLQESGPGLVKPSETLSLTCTVSGGSISRSPYYWGWIRQPPGKGLEWFGSIYNNGSTYYNPPLKSRLTISVDTSKNQFSLKLSSVTAADTAVYYCARHGGSTGMKVVVIAPPDYWGQGTLVTVSS
VL: DIQMTQSPATLSASVGDRVTITCRASQSISSWLAWYQQKPGEAPKLLIYKASSLQSGVPSRFSGSGSGTKFSLTISSLQPDDFATFYCQQYHSYPYTFGQGTKLEIK

Columns and labels:
[1] = biological target: Pfs48/45 D1D2 (domains 1 and 2, aa 27–294), native sequence (Plasmodium falciparum (isolate 3D7)., UniProt Q8I6T1); experiment: BLI
[2] = biological target: Pfs48/45 on live female Pf NF54 gametes (Plasmodium falciparum NF54 (3D7 is its …, UniProt Q8I6T1)); experiment: flow cytometry on cells
[3] = biological target: recombinant full-length Pfs48/45 (ELISA antigen) (Plasmodium falciparum, strain not …, UniProt Q8I6T1); experiment: ELISA
[4] = biological target: T1, Pfs48/45 fragment containing D3 (ELISA …); experiment: ELISA

Sequence of Pfs48/45 D1D2 (domains 1 and 2, aa 27–294), native sequence (Q8I6T1 27-294): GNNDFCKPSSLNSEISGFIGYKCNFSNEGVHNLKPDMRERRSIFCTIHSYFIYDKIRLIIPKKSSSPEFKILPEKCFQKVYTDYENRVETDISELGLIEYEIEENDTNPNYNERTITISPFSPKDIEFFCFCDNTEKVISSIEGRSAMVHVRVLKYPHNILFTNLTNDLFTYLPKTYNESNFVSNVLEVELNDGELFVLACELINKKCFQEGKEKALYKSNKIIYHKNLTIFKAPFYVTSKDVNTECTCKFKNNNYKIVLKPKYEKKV
Sequence of Pfs48/45 on live female Pf NF54 gametes (Plasmodium falciparum NF54 (Q8I6T1 28-426): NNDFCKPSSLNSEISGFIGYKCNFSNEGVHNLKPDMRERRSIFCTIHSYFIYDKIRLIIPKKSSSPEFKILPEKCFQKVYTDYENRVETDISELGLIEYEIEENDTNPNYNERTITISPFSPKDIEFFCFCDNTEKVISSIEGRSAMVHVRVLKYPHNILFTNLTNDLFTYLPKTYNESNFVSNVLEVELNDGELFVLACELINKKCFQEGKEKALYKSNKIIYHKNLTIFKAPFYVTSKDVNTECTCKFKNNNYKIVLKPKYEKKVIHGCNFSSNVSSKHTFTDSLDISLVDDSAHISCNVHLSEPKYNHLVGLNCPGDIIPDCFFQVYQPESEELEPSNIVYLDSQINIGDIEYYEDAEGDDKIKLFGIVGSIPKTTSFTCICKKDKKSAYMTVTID
Sequence of recombinant full-length Pfs48/45 (ELISA antigen) (Q8I6T1 28-426): as above

Binder | binding result [1] | binding result [2] | binding result [3] | binding result [4]
B1 | binds |  |  | 
B2 |  | binds | binds | binds
